Biological target: Mcm2-7 hexamer (budding yeast (endogenous in yeast extract) | budding yeast) (UniProt P29469)
Test: negative-stain electron microscopy

Substance: Mcm2-7 hexamer, P29469 1-868; P24279 1-971; P30665 1-933; P29496 1-775; P53091 1-1017; P38132 1-845
- stoichiometry N: 2 hexamers

— article PMC2804858
